# Source: PMC6838674, “Apelin-36-[L28A] and Apelin-36-[L28C(30kDa-PEG)] peptides that improve diet induced obesity are G protein biased ligands at the apelin receptor” (Peptides, 2019)
# T1: apelin receptor (Rattus norvegicus), Q9JHG3
# T1 chain: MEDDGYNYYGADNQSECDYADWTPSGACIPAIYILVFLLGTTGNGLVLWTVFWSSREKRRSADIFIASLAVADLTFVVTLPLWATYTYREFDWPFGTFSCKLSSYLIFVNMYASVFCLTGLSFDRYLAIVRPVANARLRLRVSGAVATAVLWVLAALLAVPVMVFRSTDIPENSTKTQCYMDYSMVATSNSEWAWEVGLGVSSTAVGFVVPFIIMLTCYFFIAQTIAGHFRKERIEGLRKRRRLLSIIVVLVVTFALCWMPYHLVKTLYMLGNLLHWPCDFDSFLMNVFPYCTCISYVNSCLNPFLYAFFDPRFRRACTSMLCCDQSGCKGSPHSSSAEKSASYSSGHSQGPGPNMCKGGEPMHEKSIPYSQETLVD
# Molecular target: T1, apelin receptor (Rattus norvegicus), …
# Experiment: radioligand competition binding, heart homogenate
# Conditions: modification not given
binder,measurement,value
LVQPRGSRNGPGPWQGGRRKFRRQRPRCSHKGPMPF [apelin-36-[L28C(30kDa-PEG)]],Ki,8.71 nM
